Experimental findings from patent publication US20240327526A1 (Amgen, published 2024) are described below.

Assay [1] concerns the target T1, ActRIIA-huFc (human).
T1 construct: Used biotinylated in the ELISA screens; also called huActRIIA-huFc; biotin-ActRIIA-huFc
As to the kind of experiment: binding affinity, method not stated.

The target of assay [2] is activin type IIA receptor (ActRIIA) on C2C12/pMARE-luc cells co-transfected with ALK4 (Homo sapiens (Human), UniProt P27037 20-513). As to the kind of experiment: cell-based or functional assay.
activin type IIA receptor (ActRIIA) on C2C12/pMARE-luc cells co-transfected with ALK4, sequence (P27037 20-513): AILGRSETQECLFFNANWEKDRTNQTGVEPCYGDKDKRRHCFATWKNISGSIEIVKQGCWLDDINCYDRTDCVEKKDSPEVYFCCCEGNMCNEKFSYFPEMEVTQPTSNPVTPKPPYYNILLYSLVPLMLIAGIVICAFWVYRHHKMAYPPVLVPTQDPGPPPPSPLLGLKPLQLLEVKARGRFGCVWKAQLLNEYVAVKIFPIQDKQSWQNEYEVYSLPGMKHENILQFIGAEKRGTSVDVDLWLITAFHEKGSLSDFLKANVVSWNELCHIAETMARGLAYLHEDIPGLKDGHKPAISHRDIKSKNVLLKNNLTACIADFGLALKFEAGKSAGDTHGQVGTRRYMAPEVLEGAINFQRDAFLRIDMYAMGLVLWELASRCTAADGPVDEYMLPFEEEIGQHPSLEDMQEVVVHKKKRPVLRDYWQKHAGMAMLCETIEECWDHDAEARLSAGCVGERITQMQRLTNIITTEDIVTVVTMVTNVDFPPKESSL
Assay [3] addresses T2, activin type IIB receptor (ActRIIB) on C2C12/pMARE-luc cells co-transfected with ALK4 (Homo sapiens (Human), UniProt Q13705 19-134).
T2 chain: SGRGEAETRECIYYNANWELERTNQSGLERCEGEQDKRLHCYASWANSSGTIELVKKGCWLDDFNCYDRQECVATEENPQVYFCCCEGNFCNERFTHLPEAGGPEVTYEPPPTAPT
Put plainly: cell-based or functional assay.

The target in assay [4] is T1, ActRIIA-huFc. As to the kind of experiment: BIAcore.
For assay [5], the target named is T1, ActRIIA-huFc. Put plainly: KinExA. In general terms: Kinetic exclusion samples the free partner from a solution-phase mixture.

Positions count from the first letter of the chain named. Bounds are passed on as bounds.

T1 sequence (chain, as listed by the source limits assumed): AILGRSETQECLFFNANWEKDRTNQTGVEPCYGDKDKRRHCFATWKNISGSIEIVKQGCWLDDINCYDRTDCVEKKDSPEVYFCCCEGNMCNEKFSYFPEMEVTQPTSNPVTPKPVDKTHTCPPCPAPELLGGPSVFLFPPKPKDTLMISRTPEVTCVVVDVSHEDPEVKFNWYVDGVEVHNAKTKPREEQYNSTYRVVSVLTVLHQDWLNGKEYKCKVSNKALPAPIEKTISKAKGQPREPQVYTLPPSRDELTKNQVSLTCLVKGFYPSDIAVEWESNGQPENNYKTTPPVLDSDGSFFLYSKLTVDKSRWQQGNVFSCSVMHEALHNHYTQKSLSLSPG

B1: Anti-ActRIIB human IgG R31-1 (antibody, V domains shown)
VH: EVQLLESGGGLVQPGGSLRLSCAASGFTFRNYAMSWVRQAPGKGLEWVSGISVTGGSTYYTDSVKGRFTVSRDNSRNTLYLQMNSLRAEDTAVYYCAKVYYSSFFDYWGQGTLVTVSS
VL: QTVVTQEPSFSVSPGGTVTLTCGFNSGSVSTSYYPSWYQQTPGQAPRTLIYNTNTRSSGVPDRFSGSILGNKAALTITGAQADDESDYYCVLYMGSGIWVFGGGTKLTVLG
notes: Human IgG2/kappa from Xenomouse immunization with ActRIIB-huFc; also called parental 31-1; parental molecule R31-1
For orientation: Kd means the equilibrium constant for the complex coming apart. High values mean lower affinity, low ones higher affinity. Regarding B1, the Kd with ActRIIA-huFc [1] is around 1000 pM; in the assay with ActRIIA-huFc [4], 4000 pM. Also, the “Cell-Based IC50, ActRIIA Signaling (luciferase reporter, C2C12/pMARE-luc cells with ActRIIA + ALK4, 4 nM myostatin or activin)” value in assay [2] came to 2 nM. For the same molecule, the “Cell-Based IC50, ActRIIB Signaling (luciferase reporter, C2C12/pMARE-luc cells with ActRIIB + ALK4, 4 nM myostatin or activin)” value in assay [3] came out at 8 nM.

B2: M25 (antibody, human IgG2, lambda, V domains shown)
VH: B1 VH with Y32S, G50A, S102Y
VL: B1 VL with W99H
For B2, in the assay with ActRIIA-huFc [5], the Kd is below 1 pM and the “fold improvement of affinity over the parental molecule R31-1” value (“fold improvement of affinity” below) is at least 1000 fold.

B3: M37 (antibody, human IgG2, lambda, V domains shown)
VH: B1 VH with S35A, Y59F, S102T
VL: B1 VL with Y93W
As for B3, in the assay with ActRIIA-huFc [5], the Kd is below 1 pM and the “fold improvement of affinity” value was at least 1000 fold.

B4: M43 (antibody, human IgG2, lambda, V domains shown)
VH: B1 VH with Y32S, Y59F, S102Y
VL: B1 VL with Y34W, Y93W
notes: fully human
In the case of B4, in the assay with ActRIIA-huFc [5], the equilibrium dissociation constant (Kd) was below 1 pM and the “fold improvement of affinity” value was at least 1000 fold. For the same molecule, the “Cell-Based IC50, ActRIIB Signaling (luciferase reporter, C2C12/pMARE-luc cells with ActRIIB + ALK4, 4 nM myostatin or activin)” value in assay [3] was 2 nM. In the assay with ActRIIA-huFc [4], this molecule showed a Kd of 1 pM.
